Data from patent publication US20120258099.
Changes are numbered by the printed parent chain.

Tests used:
GST-TRIPE32G = system: T1, GST-TRIPE32G
T1 sequence: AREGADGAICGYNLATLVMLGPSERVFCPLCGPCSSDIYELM

GST-TRIPT16M/L17S = system: T2, GST-TRIPT16M/L17S
T2 sequence: T1 sequence with T16M, L17S, G32E

GST-TRIPα = system: T3, GST-TRIPα
T3 sequence: T1 sequence with G32E

GST [GST: P08515], sequence (P08515 whole entry): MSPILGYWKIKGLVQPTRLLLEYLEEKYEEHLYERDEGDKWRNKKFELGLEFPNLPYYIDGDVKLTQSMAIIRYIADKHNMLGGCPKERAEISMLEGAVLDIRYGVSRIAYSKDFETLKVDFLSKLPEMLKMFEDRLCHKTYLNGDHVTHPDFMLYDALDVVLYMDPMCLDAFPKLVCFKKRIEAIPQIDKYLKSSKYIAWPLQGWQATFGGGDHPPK

Question: Which results are given for MBP-Tgat (aa 1-255)?
Answer: Tgat GEF activity on RhoA, kinetics fluorescence assay (kobs) (GST [GST: P08515]): GST alone (not shown) ... had no effect; Tgat GEF activity on RhoA, kinetics fluorescence assay (kobs) (GST-TRIPE32G): inhibited Tgat GEF activity in a dose-dependent manner; Tgat GEF activity on RhoA, kinetics fluorescence assay (kobs) (GST-TRIPT16M/L17S): inhibited Tgat GEF activity in a dose-dependent manner; Tgat GEF activity on RhoA, kinetics fluorescence assay (kobs) (GST-TRIPα): GST-TRIPα, at the same concentrations, had no effect
